Experimental findings from article PMC8754639 are described below.

The target in series [1] is T1, DHX36 (RHAU) (UniProt Q9H2U1 1-1008).
T1 sequence: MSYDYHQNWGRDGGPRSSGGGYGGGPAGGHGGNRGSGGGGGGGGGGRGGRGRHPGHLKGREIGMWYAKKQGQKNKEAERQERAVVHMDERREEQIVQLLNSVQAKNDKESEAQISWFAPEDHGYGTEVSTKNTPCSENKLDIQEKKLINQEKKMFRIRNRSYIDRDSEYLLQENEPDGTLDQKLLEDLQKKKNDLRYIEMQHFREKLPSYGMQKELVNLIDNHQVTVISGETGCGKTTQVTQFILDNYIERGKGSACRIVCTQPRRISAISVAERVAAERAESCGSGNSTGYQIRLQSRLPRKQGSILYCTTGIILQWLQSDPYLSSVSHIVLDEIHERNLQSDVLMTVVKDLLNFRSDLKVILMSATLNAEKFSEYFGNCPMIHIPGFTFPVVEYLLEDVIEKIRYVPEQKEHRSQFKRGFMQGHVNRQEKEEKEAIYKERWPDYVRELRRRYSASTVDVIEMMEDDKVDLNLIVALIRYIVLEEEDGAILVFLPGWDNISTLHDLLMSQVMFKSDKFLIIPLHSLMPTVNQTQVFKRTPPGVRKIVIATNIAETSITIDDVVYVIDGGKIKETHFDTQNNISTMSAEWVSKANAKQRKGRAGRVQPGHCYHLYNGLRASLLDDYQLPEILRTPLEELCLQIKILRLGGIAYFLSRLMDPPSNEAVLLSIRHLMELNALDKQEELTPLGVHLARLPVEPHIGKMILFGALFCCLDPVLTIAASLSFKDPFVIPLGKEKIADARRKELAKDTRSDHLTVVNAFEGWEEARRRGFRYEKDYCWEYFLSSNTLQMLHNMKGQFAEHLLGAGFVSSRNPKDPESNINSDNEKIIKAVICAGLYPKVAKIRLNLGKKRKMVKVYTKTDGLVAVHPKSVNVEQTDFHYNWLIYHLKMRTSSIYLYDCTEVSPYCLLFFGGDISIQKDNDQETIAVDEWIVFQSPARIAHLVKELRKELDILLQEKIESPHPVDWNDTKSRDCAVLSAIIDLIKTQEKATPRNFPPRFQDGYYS
In words: MST.

Series [2] deals with T2, NONO (53-312) (UniProt Q15233 53-312).
T2 sequence: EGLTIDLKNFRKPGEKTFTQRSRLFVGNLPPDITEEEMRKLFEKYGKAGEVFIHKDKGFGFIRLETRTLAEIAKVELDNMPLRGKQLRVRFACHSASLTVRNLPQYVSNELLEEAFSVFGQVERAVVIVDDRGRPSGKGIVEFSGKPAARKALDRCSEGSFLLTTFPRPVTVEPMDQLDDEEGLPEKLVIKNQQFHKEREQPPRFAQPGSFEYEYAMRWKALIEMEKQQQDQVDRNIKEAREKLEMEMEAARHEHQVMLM
In words: EMSA.

The target of series [3] is T3, RHAU53 peptide (UniProt Q9H2U1 53-105).
T3 sequence: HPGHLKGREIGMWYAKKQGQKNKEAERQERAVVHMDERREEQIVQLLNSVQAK
In words: MST competition.

Series [4] concerns the target T2, NONO (53-312). In words: filter binding.

Take AGGGUGGGCUUUUGUUGAUGAGGGAGGGGA (structured_RNA) [MALAT1 rG4_04 (FAM)]: the values for the Kd in series [1] and in series [2] were 130 ± 16 nM and 46.9 ± 12.1 nM, respectively. Besides, the IC50 in series [3] came out at 621 ± 95.3 nM. With AGAAGAGAGAAAGAAAGAAAGCGAGC (ssRNA) [MALAT1 rG4_09 MUT (biotin)], in series [4], the binding result was “no binding”. AGGGGAGGGAAAGGGGGAAAGCGGGC (structured_RNA) [MALAT1 rG4_09 (FAM)]: the Kd in series [2] came out at 80.9 ± 18.1 nM.

The term Kd denotes the concentration at which binding is half-saturated. A high value points to lower affinity. Broadly, the IC50 is the midpoint of a concentration-inhibition curve.
